Test results taken from US20240109962A1 (SPARX BIOSCIENCE, published 2024).
Substitutions are numbered along the chain they refer to.

B1: Antibody h#2D2 (antibody, V domains shown)
VH: EVQLVESGGGLVQPGGSLRLSCAVSGYSITSGYYWNWIRQAPGKGLEWVAYISYDGNNNYNPSLKNRFTISRDASKNTFYLQMNSLRAEDTAVYYCAREESTMITTAWFAYWGQGTLVTVSS
VL: DIQMTQSPSSLSASVGDRVTITCRASENIYSNLAWYQQKPGKAPKLLIYGATNLASGVPSRFSGSGSGTDYTLTISSLQPEDFATYYCQHFWDTPYTFGQGTKVEIK
notes: Humanized variant of 11B12
B2: Antibody 3C12 (antibody, V domains shown)
VH: QVQLKESGPGLVAPSQSLSITCTVSGFSLTSYGVHWVRQSPGKGLEWLGVIWAGGTTNYNSALMSRLSISKDNSKSQVFLKMNSLQADDTAMYYCARGGYGHSMDYWGQGTSVTVSS
VL: DIVMTQSHKFMSTSVGDRVSITCKASQDVSNAVAWYQQKPGQSPKLLIYSASYRYTGVPDRFTGSGSGTDFIFTISSVQAEDLAVYYCQQHYSTPFTFGSGTKLEIK
notes: Mouse hybridoma mAb purified from ascites
B3: Antibody 7C12 (antibody, V domains shown)
VH: EVQLQQSGPDLVKPGASVKISCKASGYIFTDFNMHWVKQSHGKSLEWIGYIYPFNGGTGYNQKFENMATLTVDISSSTAYMEVRSLTSEDSAVYYCARRGGRGHFDYWGQGTTLTVSS
VL: DIQMTQSPASLSASVGETVTVTCRASGNIHNYLAWYQQKQGKSPQLLVYNAKTLADGVPSRFSGSGSGIQFSLKINSLQPEDFGSYYCQHFWNTPFTFGSGTKLEIK
notes: as for B2
B4: Antibody 2C1 (antibody, V domains shown)
VH: EVKLVEPGGGLVQPGGSLRLSCATSGFTFSDFYMGWVRQPPGKRLEWIAASGNKAHDYATEYSASVKGRFFVSRDTFQSILYLQMNALRAEDTAIYYCARSYYYGSSAWFTYWGQGTLVTVSV
VL: DIVMTQSHKFMSTSIRDRVTIACKASQDVGTAVAWYQQKPGQSPKLLIFWASTRHAGVPDRFTGSGSGTDFTLTISNVQSEDLTDYFCQQYSSYPLTFGAGTKLELK
notes: as for B2
B5: Antibody 6H8 (antibody, V domains shown)
VH: QIQLVQSGPELKKPGETVRISCKASGYTFTNYGMNWVKQAPGKGLKWMGWINTYTGEPTYADDFRGRFALSLEPSASTASLQINNLKNEDTATYFCARYYDYDYFDYWGQGTTLTVSS
VL: DIVMTQSPSSLRVSAGEKVTMSCKSSQSLLNGGNQKNYLAWYQQKPGQPPKVLIYGASTRVSGVPDRFTGRGSGIDFTLTISSVEAEDLAVYYCQNDLSYPLTFGAGTKLELK
notes: as for B2
B6: Antibody 15A6 (antibody, V domains shown)
VH: EVKLVESGGDLVKPGGSLKLSCAASGFTFSTYGMSWVRQTPEKRLEWVATISGSNSYTYYPDSVKGRFTISRDNAKNNLYLQMSSLRSEDTALYYCTRHENGYYFYAMDYWGQGTSVTVSS
VL: DVQITQSPSYLTASPGETITINCRSSKSITKYLAWYQEKPGKTNKLLIYSGSTLQSGIPSRFSGSGSGTDFTLTISSLEPEDFAMYYCQQHSEYPWTFGGGTRLEIK
notes: as for B2
B7: Antibody 3B5 (antibody, V domains shown)
VH: EVQLQQSGPELVKPGASLKISCKASGYTFTDYNMHWVKQSHGKSLEWIGSIYPYNGDTDYNQKFKSKATLTIDNSSSTAFMDLRSLTSEDSAVYYCARENDYDGPPFPYWGLGTLVTVSA
VL: DIQMTQSSSSFSVSLGDRVTITCKASEDIYNRLAWYQQKSGNAPRLLISGATSLETGVPSRFSGSGSGKDYTLSITSLQTEDVATYYCQQYWSIRTFGGGTKLEIK
notes: as for B2
B8: Antibody 8A4 (antibody, V domains shown)
VH: QVQLKESGPGLVAPSQSLSITCTVSGFSLTDYGVNWVRQPPGKGLEWLGMIWGDGNTDYNSALKSRLSISKVNSKSQVFLKMNSLQTDDTARYYCARSSYRYDENIYYYAMDYWGQGTSVTVSS
VL: DIVMTQSPSSLTVTAGEEVTLSCKSSQSLLNSGIQKNYLTWYQQKPGQPPKLLIYWASTRESGVPDRFTGSVSGTDFTLTISSVQAEDLAVYYCQNDYSLPFTFGSGTKLEIK
notes: as for B2
B9: Antibody h#2B1 (antibody, V domains shown)
VH: B1 VH with F79V
VL: B1 VL
notes: Humanized variant of 11B12
B10: Antibody h#2E2 (antibody, V domains shown)
VH: B1 VH with A74T, F79V
VL: B1 VL
notes: Humanized variant of 11B12

Target: T1, human LILRB2 expressed on cells (293T-LILRB2, CHO-K1-LILRB2) (human, UniProt Q8N423 22-597)
T1 construct: whole, on cells; the cell line is named under assay; also called HEK293T-LILRB2
Test: flow cytometry on 293T-LILRB2 cells, serial dilution, APC anti-human IgG; fit table under the graph
Source text: (§1) The cells were washed and then subject to flow cytometry to measure levels of fluorescent signals.

T1 sequence (Q8N423 22-597): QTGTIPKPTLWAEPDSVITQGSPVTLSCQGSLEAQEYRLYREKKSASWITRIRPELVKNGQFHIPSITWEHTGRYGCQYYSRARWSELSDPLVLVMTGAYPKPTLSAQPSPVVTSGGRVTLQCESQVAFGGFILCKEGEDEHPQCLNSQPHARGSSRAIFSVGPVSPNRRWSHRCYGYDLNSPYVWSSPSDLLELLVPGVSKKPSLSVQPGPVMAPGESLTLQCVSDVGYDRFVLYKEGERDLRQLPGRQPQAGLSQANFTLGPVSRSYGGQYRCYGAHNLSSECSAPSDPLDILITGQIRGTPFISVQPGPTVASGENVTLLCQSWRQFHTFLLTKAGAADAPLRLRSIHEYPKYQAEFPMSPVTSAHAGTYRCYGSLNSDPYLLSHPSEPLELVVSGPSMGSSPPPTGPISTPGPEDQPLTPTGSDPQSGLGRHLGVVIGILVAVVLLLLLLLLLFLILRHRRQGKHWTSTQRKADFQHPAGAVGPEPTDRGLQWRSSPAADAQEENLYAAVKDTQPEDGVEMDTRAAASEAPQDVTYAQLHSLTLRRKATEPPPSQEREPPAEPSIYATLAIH

Row | Bmax | Kd | Binder
1 | 608000 RFU | 0.362 nM | B1

Target: T2, human LILRB3 expressed on 293T cells (human, UniProt O75022 24-631)
T2 construct: whole, on cells
Test: cell ELISA on fixed 293T transfectants, OD490
Protocol: (§2) The cells were then immobilized with glutaraldehyde in the presence of 5% defatted milk at room temperature for 2 hours. An anti-LILRB2 antibody (2 μg/ml) was added to each well and incubated at room temperature for 2 hours. An HRP-labelled goat anti-mouse secondary antibody was then added into each well and incubated at room temperature for one hour. An HRP substrate, o-phenylenediamine dihydrochloride (OPD) was then added to each well. The plate was incubated at room temperature for 15 min to allow color development and OD₄₉₀ values were determined.

Row | binding result | Binder
2 | no binding (tested: 2 µg/ml) | B2
3 | no binding (tested: 2 µg/ml) | B3
4 | no binding (tested: 2 µg/ml) | B4
5 | no binding (tested: 2 µg/ml) | B5

Target: T3, human LILRB1 expressed on 293T cells (human, UniProt Q8NHL6 24-650)
T3 construct: whole, on cells
Test: cell ELISA on fixed 293T transfectants, OD490
Protocol: as §2

T3 sequence (Q8NHL6 24-650): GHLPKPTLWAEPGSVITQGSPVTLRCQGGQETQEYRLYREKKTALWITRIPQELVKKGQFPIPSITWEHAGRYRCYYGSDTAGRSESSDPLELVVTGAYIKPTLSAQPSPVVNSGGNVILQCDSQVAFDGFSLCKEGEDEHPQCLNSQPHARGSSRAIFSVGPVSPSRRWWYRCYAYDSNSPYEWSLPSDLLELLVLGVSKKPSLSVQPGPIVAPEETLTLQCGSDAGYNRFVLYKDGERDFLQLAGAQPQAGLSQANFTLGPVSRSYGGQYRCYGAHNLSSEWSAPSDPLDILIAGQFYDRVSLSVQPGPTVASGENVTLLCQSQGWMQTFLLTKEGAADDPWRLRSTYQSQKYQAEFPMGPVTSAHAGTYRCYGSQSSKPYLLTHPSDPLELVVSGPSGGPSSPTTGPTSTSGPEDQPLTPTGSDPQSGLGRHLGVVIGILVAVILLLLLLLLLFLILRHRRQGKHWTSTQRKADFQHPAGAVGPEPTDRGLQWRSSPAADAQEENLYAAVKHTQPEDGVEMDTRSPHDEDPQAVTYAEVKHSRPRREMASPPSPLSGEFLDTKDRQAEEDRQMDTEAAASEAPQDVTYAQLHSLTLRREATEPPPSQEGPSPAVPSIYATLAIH

Row | binding result | Binder
6 | no binding (tested: 2 µg/ml) | B2
7 | no binding (tested: 2 µg/ml) | B3
8 | no binding (tested: 2 µg/ml) | B6
9 | no binding (tested: 2 µg/ml) | B4
10 | no binding (tested: 2 µg/ml) | B5

Target: T4, LILRB3-His
T4 construct: also called His-tagged LILRB3; recombinant LILRB3 protein
Test: ELISA on recombinant His-tagged protein, OD450

Row | binding result | Binder
11 | no binding | B7
12 | no binding | B2
13 | no binding | B8
14 | no binding | B5

Target: T5, LILRB1-His
T5 construct: also called His-tagged LILRB1; recombinant LILRB1 protein
Test: ELISA on recombinant His-tagged protein, OD450

T5 sequence (chain, as listed by the source limits assumed): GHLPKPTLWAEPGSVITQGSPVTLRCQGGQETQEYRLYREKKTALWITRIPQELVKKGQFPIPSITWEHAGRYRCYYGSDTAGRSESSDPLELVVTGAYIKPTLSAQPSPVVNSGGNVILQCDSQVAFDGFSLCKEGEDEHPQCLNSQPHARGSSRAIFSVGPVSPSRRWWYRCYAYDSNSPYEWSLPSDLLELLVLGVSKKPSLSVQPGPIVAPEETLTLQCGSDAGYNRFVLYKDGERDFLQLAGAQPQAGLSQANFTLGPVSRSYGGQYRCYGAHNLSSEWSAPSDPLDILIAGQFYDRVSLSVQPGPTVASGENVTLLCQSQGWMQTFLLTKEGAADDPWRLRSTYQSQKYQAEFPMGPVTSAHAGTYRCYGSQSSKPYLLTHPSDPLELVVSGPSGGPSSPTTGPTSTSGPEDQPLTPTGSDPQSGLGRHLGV

Row | binding result | Binder
15 | no binding | B7
16 | no binding | B2
17 | no binding | B8
18 | no binding | B5

Target: T2, human LILRB3 expressed on 293T cells
Test: flow cytometry on 293T transfectants, MFI
Protocol: (§3) The cells were then immobilized with glutaraldehyde in the presence of 5% defatted milk at room temperature for 2 hours. An anti-LILRB2 antibody (5 μg/ml) was added to each well and incubated at room temperature for 1 hours. An Alex Flour®-labelled goat anti-mouse secondary antibody (1:2,000 dilution) was then added into each well and incubated at room temperature for 30′. The cells were washed twice with PBS after the staining. Fluorescence intensities (MFI) were measured.

Row | binding result | Binder
19 | no binding (tested: 5 µg/ml) | B7
20 | no binding (tested: 5 µg/ml) | B8

Target: T3, human LILRB1 expressed on 293T cells
Test: flow cytometry on 293T transfectants, MFI
Protocol: as §3

Row | binding result | Binder
21 | no binding (tested: 5 µg/ml) | B7
22 | no binding (tested: 5 µg/ml) | B8

Target: LILRB2 antigen of the ELISA of Table 5 (format not specified) (UniProt Q8N423 22-460, limits assumed)
Test: ELISA, antibody titration

LILRB2 antigen of the ELISA of Table 5 (format not specified), sequence (Q8N423 22-460 limits assumed): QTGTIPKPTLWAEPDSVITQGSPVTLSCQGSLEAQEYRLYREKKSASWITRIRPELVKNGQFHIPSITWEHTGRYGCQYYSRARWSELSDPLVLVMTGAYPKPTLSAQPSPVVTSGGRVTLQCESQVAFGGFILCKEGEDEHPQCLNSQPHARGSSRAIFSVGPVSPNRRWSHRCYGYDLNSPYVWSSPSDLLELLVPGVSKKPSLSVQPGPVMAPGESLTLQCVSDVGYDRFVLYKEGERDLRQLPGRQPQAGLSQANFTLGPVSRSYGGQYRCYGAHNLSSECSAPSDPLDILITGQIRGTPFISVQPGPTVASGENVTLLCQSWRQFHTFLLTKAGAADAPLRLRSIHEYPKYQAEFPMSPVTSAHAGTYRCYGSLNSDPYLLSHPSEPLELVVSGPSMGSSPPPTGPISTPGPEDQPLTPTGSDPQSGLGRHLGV

Row | Kd | Binder
23 | 2.93 nM | B7
24 | 5.01 nM | B2
25 | 0.631 nM | B3
26 | 0.725 nM | B6
27 | 0.493 nM | B8
28 | 5.7 nM | B5

Target: T1, human LILRB2 expressed on cells …
Test: flow cytometry on 293T-LILRB2 cells, serial dilution, APC anti-human IgG; fit table under the graph
Remark: another data set of the same source
Source text: as §1

Row | Bmax | Kd | Binder
29 | 606000 RFU | 0.256 nM | B9
30 | 615000 RFU | 0.317 nM | B10

Target: T6, His-tagged human LILRB2 polypeptide (human, UniProt Q8N423 22-460)
T6 construct: SPR analyte; also called His-tagged human LILBR2 polypeptide; not shown: His tag
Test: SPR, antibody on CM5 chip, His-LILRB2 analyte, 1:1 model
Protocol: Surface plasmon resonance (SPR) was used to examine binding activities of exemplary anti-LILBR2 antibodies disclosed herein. Briefly, the anti-LILBR2 antibody was diluted in a coating buffer to a concentration of 30 μg/ml, loaded onto CM5 chips at 10 μl/min to allow coating of the antibody on the surface of the CM5 chip. […] Binding affinity was measured based on the 1:1 binding model.

T6 sequence (Q8N423 22-460 limits assumed): as above

Row | Kd | koff | kon | Binder
31 | 0.792 nM | 0.000209 s⁻¹ | 263000 M⁻¹ s⁻¹ | B3
32 | 5.45 nM | 0.00137 s⁻¹ | 251000 M⁻¹ s⁻¹ | B6
33 | 0.185 nM | 0.000174 s⁻¹ | 940000 M⁻¹ s⁻¹ | B8

Target: T1, human LILRB2 expressed on cells …
Test: flow cytometry, blockade of His-tagged HLA-G tetramer binding to 293T-LILRB2 cells; fit table under the graph
Protocol: (§4) Serial diluted humanized LILRB2 antibodies were then added to the mixture and incubated at room temperature for another 45 minutes. The binding of HLA-G/LILRB2 was detected afterwards using a secondary PE-labeled anti-His tag antibody via flow cytometry.

Row | Span | Binder
34 | 8850 RFU | B9
35 | 8780 RFU | B10
36 | 7640 RFU | B1

Target: T1, human LILRB2 expressed on cells …
Test: flow cytometry, blockade of His-tagged HLA-G tetramer binding to 293T-LILRB2 cells; fit table under the graph, row headed EC50
Protocol: as §4

Row | EC50 | Binder
37 | 0.219 nM | B9
38 | 0.389 nM | B10
39 | 0.131 nM | B1
